In PMC7343708, “Molecular Dynamics to Elucidate the DNA-Binding Activity of AlpZ, a Member of the Gamma-Butyrolactone Receptor Family in Streptomyces ambofaciens”:

T1: AlpZ (Streptomyces ambofaciens, UniProt Q6VMG9 1-237)
T1 sequence: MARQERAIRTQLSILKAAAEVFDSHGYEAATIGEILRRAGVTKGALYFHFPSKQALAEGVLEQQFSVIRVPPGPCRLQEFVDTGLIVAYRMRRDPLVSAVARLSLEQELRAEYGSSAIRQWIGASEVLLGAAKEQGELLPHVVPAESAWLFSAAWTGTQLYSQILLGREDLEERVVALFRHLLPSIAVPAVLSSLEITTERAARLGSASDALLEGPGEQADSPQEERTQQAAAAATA


Key:
AlpZ [1] = biological target: T1, AlpZ; assay: switchSENSE; no association observed; switchSENSE: PE40 pH 7.4 (10 mM Na phosphate, 40 mM NaCl, 0.05% Tween20, 50 uM EDTA, 50 uM EGTA), 30 C; EMSA: 20 mM HEPES pH 7.6, 1 mM EDTA, 10 mM (NH4)2SO4, 1; conditions: protein: recombinant; chain copies: 2; label: fluorescent nanolever on the switchSENSE chip; 40 bp duplex with 3' overhang 48 nt on strand 1, hybridized to chip nanolever
AlpZ [2] = biological target: T1, AlpZ; assay: switchSENSE; AlpZ 50 nM; kON 1.38e5 M-1 s-1, kOFF 1.05e-4 s-1 (printed rates give 0.76 nM, inconsistent with printed KD); switchSENSE: PE40 pH 7.4 (10 mM Na phosphate, 40 mM NaCl, 0.05% Tween20, 50 uM EDTA, 50 uM EGTA), 30 C; EMSA: 20 mM HEPES pH 7.6, 1 mM EDTA, 10 mM (NH4)2SO4, 1; conditions: protein: recombinant; chain copies: 2; label: fluorescent nanolever on the switchSENSE chip; 40 bp duplex with 3' overhang 48 nt on strand 1, hybridized to chip nanolever

Row | Binder | binding result (AlpZ [1]) | Kd (AlpZ [2]) [nM]
1 | nanoControl dsoverhang (dsDNA) DNA 1: GGGGGGTGTGAGAACGGGGTGTTCTGGTGTTTGCGCCGGAATCAGCGTTCGATGCTTCCGACTAATCAGCCATATCAGCTTACGACTA DNA 2: TCCGGCGCAAACACCAGAACACCCCGTTCTCACACCCCCC | no binding | 
2 | nanoAREV dsoverhang (dsDNA) DNA 1: CTCACATTGACAAACCGACTGTGCTGTTTTTTTATCAGGGATCAGCGTTCGATGCTTCCGACTAATCAGCCATATCAGCTTACGACTA DNA 2: CCCTGATAAAAAAACAGCACAGTCGGTTTGTCAATGTGAG |  | 37.1 ± 3.3
